Assay results as given in US20190144558A1 (MAGENTA THERAPEUTICS, published 2019).
Substitutions are numbered along the chain they refer to.

B1: Antibody 58 (antibody, human IgG1, kappa, V domains shown)
VH: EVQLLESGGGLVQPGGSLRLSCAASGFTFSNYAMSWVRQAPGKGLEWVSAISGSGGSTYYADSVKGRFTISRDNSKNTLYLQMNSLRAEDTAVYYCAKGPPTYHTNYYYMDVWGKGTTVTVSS
VL: DIQMTQSPSSVSASVGDRVTITCRASQGISSWLAWYQQKPGKAPKLLIYAASSLQSGVPSRFSGSGSGTDFTLTISSLQPEDFATYYCQQTNSFPYTFGGGTKVEIKR
notes: also called Ab58; HC-58/LC-58
B2: Antibody 61 (antibody, human IgG1, kappa, V domains shown)
VH: EVQLLESGGGLVQPGGSLRLSCAASGFTFSSYVMIWVRQAPGKGLEWVSSISGDSVTTYYADSVKGRFTISRDNSKNTLYLQMNSLRAEDTAVYYCAKGPPTYHTNYYYMDVWGKGTTVTVSS
VL: B1 VL
notes: also called Ab61; HC-61/LC-61
B3: Antibody 67 (antibody, human IgG1, kappa, V domains shown)
VH: EVQLVESGGGLVQPGGSLRLSCAASGFTFSDADMDWVRQAPGKGLEWVGRTRNKAGSYTTEYAASVKGRFTISRDDSKNSLYLQMNSLKTEDTAVYYCAREPKYWIDFDLWGRGTLVTVSS
VL: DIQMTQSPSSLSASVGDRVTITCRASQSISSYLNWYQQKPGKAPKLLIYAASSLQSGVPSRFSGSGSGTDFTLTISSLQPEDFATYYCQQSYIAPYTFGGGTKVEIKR
notes: also called Ab67; HC-67/LC-67
B4: Antibody 66 (antibody, human IgG1, kappa, V domains shown)
VH: B3 VH with A32H, D33Y, G56S
VL: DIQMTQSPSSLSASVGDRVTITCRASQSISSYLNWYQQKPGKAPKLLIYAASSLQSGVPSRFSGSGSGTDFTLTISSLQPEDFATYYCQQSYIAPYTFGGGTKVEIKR
notes: also called Ab66; HC-66/LC-66
B5: Antibody 68 (antibody, human IgG1, kappa, V domains shown)
VH: B3 VH with G16R, A23T, A32H, D35N, K54A
VL: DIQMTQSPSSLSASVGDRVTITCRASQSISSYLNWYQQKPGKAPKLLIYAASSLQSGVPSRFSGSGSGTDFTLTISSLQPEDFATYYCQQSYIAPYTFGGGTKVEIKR
notes: also called Ab68; HC-68/LC-68
B6: Antibody 69 (antibody, human IgG1, kappa, V domains shown)
VH: B3 VH with S30V, A32H, A55L
VL: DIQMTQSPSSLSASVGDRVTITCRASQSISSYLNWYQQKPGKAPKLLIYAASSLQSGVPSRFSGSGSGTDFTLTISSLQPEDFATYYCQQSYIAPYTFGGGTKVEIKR
notes: also called Ab69; HC-69/LC-69
B7: Antibody 56 (antibody, human IgG1, kappa, V domains shown)
VH: QVQLVQSGAEVKKPGSSVKVSCKASGGTFSLYAISWVRQAPGQGLEWMGGIIPAFGTANYAQKFQGRVTITADESTSTAYMELSSLRSEDTAVYYCARGGLDTDEFDLWGRGTLVTVSS
VL: DIQMTQSPSSLSASVGDRVTITCRASQSINSYLNWYQQKPGKAPKLLIYAASSLQSGVPSRFSGSGSGTDFTLTISSLQPEDFATYYCQQGVSDITFGGGTKVEIKR
notes: also called Ab56; HC-56/LC-56
B8: Antibody 54 (antibody, human IgG1, kappa, V domains shown)
VH: B7 VH with L31S, A54I
VL: B7 VL
notes: also called Ab54; HC-54/LC-54
B9: Antibody 57 (antibody, human IgG1, kappa, V domains shown)
VH: B7 VH with A54H, T57L
VL: B7 VL
notes: also called Ab57; HC-57/LC-57
B10: Antibody 55 (antibody, human IgG1, kappa, V domains shown)
VH: B7 VH with S30R, L31I, A54D, T57V
VL: B7 VL
notes: also called Ab55; HC-55/LC-55

Target: T1, rhesus CD117 ectodomain (rhesus, UniProt F6V858 26-524)
T1 construct: extracellular domain
Test: BLI (Octet Red96), IgG on anti-human Fc sensors, rhesus CD117 ectodomain at 33.3 and 11 nM, 1:1 fit
Procedure: Antibody binding studies were performed at 25 degrees celsius in 1×PBS supplemented with 0.1% w/v bovine serum albumin with a Pall ForteBio Octet Red96 using biolayer interferometry (BLI).

| Binder | Kd [nM] | koff [s⁻¹] | kon [M⁻¹ s⁻¹] |
| --- | --- | --- | --- |
| B1 | 30.3 | 0.00855 | 282000 |
| B2 | 20.5 | 0.00472 | 230000 |
| B3 | 0.376 | 8.57e-05 | 228000 |
| B4 | 66 | 0.0258 | 391000 |
| B5 | 0.374 | 8.98e-05 | 240000 |
| B6 | 0.528 | 0.000126 | 240000 |
| B7 | 0.28 | 8.57e-05 | 306000 |
| B8 | 2.6 | 0.000793 | 304000 |
| B9 | 0.288 | 8.57e-05 | 298000 |
| B10 | 0.284 | 8.96e-05 | 315000 |
